The results in this text go back to the Human Domainome abundance scans (Beltran et al. 2025).

± gives the uncertainty stated by the source.

B1: Metastasis-associated protein MTA3, residues 265 to 317; numbered along this chain, Q9BTC8 (parent)
chain: RDEMEEWSASEASLFEEALEKYGKDFNDIRQDFLPWKSLTSIIEYYYMWKTTD

The variants in this data set derive from B1. Kind of data set: abundance fitness (aPCA) (normalised: wild type 0, dead -1); higher = more abundant; growth selection in yeast, the domain comes from the species named. Particulars: Homo sapiens.
Turning to RDEMEEWSASEASLFEEALEKYGKDFNDIRQDFLPWKSLTCIIEYYYMWKTTD, the abundance fitness is -0.681 ± 0.2.

With RDEMEEWSASEASLFEEALEKYGKDFNDIRQDFLPWKSLTYIIEYYYMWKTTD, the abundance fitness was -0.488 ± 0.11.

In the case of RDEMETWSASEASLFEEALEKYGKDFNDIRQDFLPWKSLTSIIEYYYMWKTTD, the abundance fitness was -0.267 ± 0.4.

As to RDEMEEWSASLASLFEEALEKYGKDFNDIRQDFLPWKSLTSIIEYYYMWKTTD, the abundance fitness is -0.713 ± 0.088.

On to RDEMEEWSASRASLFEEALEKYGKDFNDIRQDFLPWKSLTSIIEYYYMWKTTD, for which the abundance fitness was -0.92 ± 0.13.

As for RDEMEEWSASKASLFEEALEKYGKDFNDIRQDFLPWKSLTSIIEYYYMWKTTD, the abundance fitness was -0.562 ± 0.11.

On to RDEMEEWSASFASLFEEALEKYGKDFNDIRQDFLPWKSLTSIIEYYYMWKTTD, for which the abundance fitness was -0.87 ± 0.087.

Regarding RDEMEEWSASEALLFEEALEKYGKDFNDIRQDFLPWKSLTSIIEYYYMWKTTD, the abundance fitness is -0.045 ± 0.08.

On to RDEMEEWSASEAVLFEEALEKYGKDFNDIRQDFLPWKSLTSIIEYYYMWKTTD, for which the abundance fitness came out at 0.066 ± 0.09.

RDEMEEWSASEASLFEEALEKYGKDFNDIRQDFLPWKSLFSIIEYYYMWKTTD: the abundance fitness was -0.875 ± 0.18.

Consider RDEMEEWSASEASLFEEALEKYGKDFNDIRQDFLPWKSLGSIIEYYYMWKTTD, for which the abundance fitness was -0.188 ± 0.15.

On to RDEMEEWSASEASLFEEALEKYGKDFNDIRQDFLPWKSLSSIIEYYYMWKTTD, for which the abundance fitness was -0.336 ± 0.093.

Take RDEMEEWSASEASLFEEALEKYGPDFNDIRQDFLPWKSLTSIIEYYYMWKTTD: the abundance fitness amounted to 0.307 ± 0.061.

In the case of RDEMEEWSASEASLFEEALEKYGADFNDIRQDFLPWKSLTSIIEYYYMWKTTD, the abundance fitness was 0.104 ± 0.075.

For the variant RDEMEEWSASEASLFEEALEKYGDDFNDIRQDFLPWKSLTSIIEYYYMWKTTD, the abundance fitness was -0.165 ± 0.096.

Regarding RDEMEEWSASEASLFEEALEKYGKDFNDIRQDFLPWKSLTSEIEYYYMWKTTD, the abundance fitness was -0.888 ± 0.26.

Regarding RDEMEEWSASEASLFEEALEKYGKDFNDIRQDFLPWKSLTSWIEYYYMWKTTD, the abundance fitness was -0.204 ± 0.13.

Consider RDEMEEWSASEASLFEEALEKYGKDFNDIRQDFLPWKSLTSIGEYYYMWKTTD, for which the abundance fitness was -0.491 ± 0.11.

Take RDEMEEWSASEASLFEEALEKYGKDFNDIRQDFLPWKSLTSIVEYYYMWKTTD: the abundance fitness was -0.381 ± 0.12.

For RDEMEEWSASEASLFEEALEKYGKDFNDIRQDFLPWKSLTSIPEYYYMWKTTD, the abundance fitness was -0.875 ± 0.23.

In the case of RDEMEEWSASEASLFEEALEKYGKDFNDIRQDFLPWKSLTSIQEYYYMWKTTD, the abundance fitness amounted to 0.136 ± 0.077.

Consider RDEMEEWSASEASLFEEALEKYGKDFNDIRQDFLPWCSLTSIIEYYYMWKTTD, for which the abundance fitness is -0.763 ± 0.088.

Turning to RDEMEEWSASEASLFEEALEKYGKDFNDIRQDFLPWESLTSIIEYYYMWKTTD, the abundance fitness was -0.806 ± 0.17.

RDEMEEWSASEASLFEEALEKYGKDFNDIRQDFLPWSSLTSIIEYYYMWKTTD: the abundance fitness was -0.65 ± 0.074.

Regarding RDEMEEWSASEASLFEEALEKYGKDFNDIRQDFLPWRSLTSIIEYYYMWKTTD, the abundance fitness is -0.398 ± 0.075.

In the case of RDEMEEWSASEASLFEEALEKYGKDFNDIRQDFLPWKSMTSIIEYYYMWKTTD, the abundance fitness is -0.541 ± 0.46.

In the case of RDEMEEWSASEASLFEEALEKYGKDFNDIRQDFLPWKSRTSIIEYYYMWKTTD, the abundance fitness was -0.348 ± 0.081.

With RDEMEEWSASEASLFEEALEKQGKDFNDIRQDFLPWKSLTSIIEYYYMWKTTD, the abundance fitness is -0.921 ± 0.18.

With RDEMEEWSASEASLFEEALEKIGKDFNDIRQDFLPWKSLTSIIEYYYMWKTTD, the abundance fitness amounted to 0.078 ± 0.26.

As to RDEMEEWSASEASLFEEELEKYGKDFNDIRQDFLPWKSLTSIIEYYYMWKTTD, the abundance fitness was -0.439 ± 0.27.

As for RDEMEEWSASEASLFEEMLEKYGKDFNDIRQDFLPWKSLTSIIEYYYMWKTTD, the abundance fitness was -0.643 ± 0.14.

Take RDEMEEWSASEASLFEECLEKYGKDFNDIRQDFLPWKSLTSIIEYYYMWKTTD: the abundance fitness was -0.32 ± 0.1.

Turning to RDEMEEWSASEASLFEEALEKYGKDFNDIRQDFLPWKSLTSIIEYYYMWKTAD, the abundance fitness is -0.097 ± 0.065.

Take RDEMEEWSASEASLFEEALEKYGKDFNDIRQDFLPWKSLTSIIEYYYMWKTGD: the abundance fitness was 0.001 ± 0.097.

Regarding RDEMEEWSASEASLFEEALEKYGKDFNDIRQDFLPWKSLTSIIEYYYMWKTYD, the abundance fitness is -0.428 ± 0.12.

In the case of RDEMEEWSASEASLFEEALEKYGKDFNDIRQDFLPWKSLTSIIEYYYMWKTSD, the abundance fitness was -0.032 ± 0.071.

With RDEMEEWSASEASLYEEALEKYGKDFNDIRQDFLPWKSLTSIIEYYYMWKTTD, the abundance fitness was -1.15 ± 0.32.

As to RDEMEEWSASEASLIEEALEKYGKDFNDIRQDFLPWKSLTSIIEYYYMWKTTD, the abundance fitness was -0.836 ± 0.16.

As for RDEMEEWSASEASNFEEALEKYGKDFNDIRQDFLPWKSLTSIIEYYYMWKTTD, the abundance fitness is -0.639 ± 0.17.

Turning to RDEMEEWSASEASIFEEALEKYGKDFNDIRQDFLPWKSLTSIIEYYYMWKTTD, the abundance fitness is -0.444 ± 0.11.

In the case of RDEMEEWSMSEASLFEEALEKYGKDFNDIRQDFLPWKSLTSIIEYYYMWKTTD, the abundance fitness is -0.909 ± 0.25.

As for RDEMEEWSASEASLFEEALEKYGKCFNDIRQDFLPWKSLTSIIEYYYMWKTTD, the abundance fitness was -0.026 ± 0.11.

For the variant RDEMEEWSASEASLFEEALEKYGKTFNDIRQDFLPWKSLTSIIEYYYMWKTTD, the abundance fitness was -0.838 ± 0.17.

With RDEMEEWSASEASLFEEALEKYGKYFNDIRQDFLPWKSLTSIIEYYYMWKTTD, the abundance fitness is -0.392 ± 0.2.

RDEMIEWSASEASLFEEALEKYGKDFNDIRQDFLPWKSLTSIIEYYYMWKTTD: the abundance fitness is -0.196 ± 0.26.

For RDEMQEWSASEASLFEEALEKYGKDFNDIRQDFLPWKSLTSIIEYYYMWKTTD, the abundance fitness was -0.347 ± 0.46.

Turning to RDEMEEWSASEASLFEEALEKYGKDFNDIRQDFLPWKILTSIIEYYYMWKTTD, the abundance fitness was -0.629 ± 0.2.

Turning to RDEMEEWSASEASLFEEALEKYGKDFNDIRQDFLPVKSLTSIIEYYYMWKTTD, the abundance fitness is -0.657 ± 0.076.

On to RDEMEEWSASEASLFEEALEKYGKDFNDIRQDFLPSKSLTSIIEYYYMWKTTD, for which the abundance fitness is -0.645 ± 0.083.

Turning to RDEMEEWSASEASLFEEAHEKYGKDFNDIRQDFLPWKSLTSIIEYYYMWKTTD, the abundance fitness is -0.525 ± 0.11.
